The record followed here is patent US20160324958A1 (ALPHA O PEPTIDES, published 2016).

The target of experiment [1] is Toll-like receptor 5 (TLR5) on TLR5/SEAPorter HEK 293 cells (IMGENEX, Cat. No. IML-105) (UniProt O60602). As to the kind of experiment: cell-based or functional assay.
Experiment [2] has as its target Toll-like receptor 5 (TLR5) on TLR5/SEAPorter HEK 293 cells (IMGENEX, Cat. No. IML-105) (UniProt O60602 21-858). Briefly: cell-based or functional assay.

Sequence of Toll-like receptor 5 (TLR5) on TLR5/SEAPorter HEK 293 cells (IMGENEX, Cat. No. IML-105) (UniProt O60602 21-858) (O60602 21-858 limits assumed): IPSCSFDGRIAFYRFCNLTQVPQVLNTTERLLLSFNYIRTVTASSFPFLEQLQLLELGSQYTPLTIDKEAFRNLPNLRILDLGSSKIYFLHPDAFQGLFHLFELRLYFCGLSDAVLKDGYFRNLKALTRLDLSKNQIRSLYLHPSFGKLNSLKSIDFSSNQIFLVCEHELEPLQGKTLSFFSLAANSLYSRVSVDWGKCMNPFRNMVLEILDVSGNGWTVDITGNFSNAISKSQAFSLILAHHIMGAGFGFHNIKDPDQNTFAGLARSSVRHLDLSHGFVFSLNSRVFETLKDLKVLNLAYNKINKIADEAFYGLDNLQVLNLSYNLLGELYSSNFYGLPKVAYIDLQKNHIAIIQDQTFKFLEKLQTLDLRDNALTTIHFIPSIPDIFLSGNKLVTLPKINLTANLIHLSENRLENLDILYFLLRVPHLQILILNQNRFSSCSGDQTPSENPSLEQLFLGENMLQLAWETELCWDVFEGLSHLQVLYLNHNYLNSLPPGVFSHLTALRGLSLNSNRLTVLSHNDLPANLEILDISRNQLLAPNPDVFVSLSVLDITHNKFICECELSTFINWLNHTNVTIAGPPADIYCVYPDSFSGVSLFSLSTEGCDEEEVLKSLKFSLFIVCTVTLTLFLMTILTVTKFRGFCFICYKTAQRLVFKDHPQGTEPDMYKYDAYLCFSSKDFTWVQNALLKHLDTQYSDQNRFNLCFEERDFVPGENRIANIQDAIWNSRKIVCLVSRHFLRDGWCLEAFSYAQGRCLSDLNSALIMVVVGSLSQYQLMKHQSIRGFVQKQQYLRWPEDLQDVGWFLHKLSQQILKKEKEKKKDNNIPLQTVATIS
Sequence of Toll-like receptor 5 (TLR5) on TLR5/SEAPorter HEK 293 cells (IMGENEX, Cat. No. IML-105) (UniProt O60602) (O60602 21-858 limits assumed): as above

Consider “flagellin from Salmonella typhimurium (IMGENEX flagellin, Cat. No. IMG-2205) (from UniProt P06179 2-495) (ligand)”, for which, in experiment [1], the EC50 of TLR5 agonist activity (SEAP reporter, TLR5/SEAPorter HEK 293 cells) came out at 0.29 ng/mL.

B1: PD52-2i88-PANDORA-D2-D1-ori : PD52-2i88-PANDORA-Noro co-assembled nanoparticle (5:55) (other)
chain 1: MGHHHHHHASGSWEKWNAKWDEWKNDWNDWRRDWQAWVDDWAYWTLTWKYGELYSKLAELERRNEELERRLEELARFVAALSMRLAELERRNEELARGSGSSARLSDLEANNAVRGESKITVNGAEYTANATGDRITLAGRTMFIDRTASGVSTLINEDAAAARRSTANPLASIDSALSRVDAVRSSLGAIQNRFDSAIGSKNANDGISIAQTTEGALNEINNNLQRVRELSVQATNGTNSDSDLRSIQDEIQQRLEEIDRVSNQTQFNGVKVLSQDNQMKIQVGAKDGETITIDLQKIDVKSLGLDGFNVNGPREATVGDLRSSFRNVTGYDTYAAGADRYRVDINSGAV
chain 2: MGHHHHHHASGSWEKWNAKWDEWKNDWNDWRRDWQAWVDDWAYWTLTWKYGELYSKLAELERRNEELERRLEELARFVAALSMRLAELERRNEELARGSGSTVEQKTRPFTLPNLPLSSLSNSRAPLPISSMGISPDNVQSVQFQNGRCTLDGRLVGTTPVSLSHVAKIRGTSNGTVINLTELDGTPFHPFEGPAPIGFPDLGGCDWHINMTQFGHSSQTQYDVDTTPDTFVPHLGSIQANGIGSGNYVGVLSWISPPSHPSGSQVDLWKIPNYGSSITEATHLAPSVYPPGFGEVLVFFMSKMPGPGAYNLPCLLPQEYISHLASEQAPTVGEAALLHYVDPDTGRNLGEFKAYPDGFLTCVPNGASSGPQQLPINGVFVFVSWVSRFYQLKPVGTAS
B1: in experiment [2], the “EC50 of TLR5 agonist activity (SEAP reporter, TLR5/SEAPorter HEK 293 cells)” value was found to be 17.7 ng/mL.

B2: LONG-D2-D1-ori self-assembling protein nanoparticle (other)
chain: MGHHHHHHASWRWDGGLVPRGSWQTWNARWDQWSNDWNAWRSDWQAWRDDWARWRALWMGGRLLLRLEELERRLEELERRLEELERFVAAWTLRVRALERRLEELERRIEEIARGSGSSARLSDLEANNAVKGESKITVNGAEYTANATGDKITLAGKTMFIDKTASGVSTLINEDAAAAKKSTANPLASIDSALSKVDAVRSSLGAIQNRFDSAIGSRNANDGISIAQTTEGALNEINNNLQRVRELSVQATNGTNSDSDLKSIQDEIQQRLEEIDRVSNQTQFNGVKVLSQDNQMKIQVGANDGETITIDLQKIDVKSLGLDGFNVNGPKEATVGDLKSSFKNVTGYDTYAAGADKYRVDINSGAV
With B2, the “EC50 of TLR5 agonist activity (SEAP reporter, TLR5/SEAPorter HEK 293 cells)” value in experiment [2] is 12.6 ng/mL.

B3: T81c-WRW-8RRVRA-D0-D1 : T81c-WRW-8RRVRA-T1BT* co-assembled nanoparticle (12:48) (other)
chain 1: MGHHHHHHASWRWDGGLVPRGSWQTWNARWDQWSNDWNAWRSDWQAWRDDWARWRALWMGGRLLLRLEELERRLEELERRLEELERFVAAWTLRVRALERRLEELERRIEEIARGMAQVINTNSLSLLTQNNLNKSQSALGTAIERLSSGLRINSAKDDAAGQAIANRFTANIKGLTQASRNANDGISIAQTTEGALNEINNNLQRVRELAVQSANSTNSQSDLDSIQAEITQRLNEIDRVSGQTQFNGVKVLAQDNTLTIQVGANDGETIDIDLKQINSQTLGLDSLNVHGAPVDPASPWTENPLQKIDAALAQVDALRSDLGAVQNRFNSAITNLGNTVNNLSEARSRIEDSDYATEVSNMSRAQILQQAGTSVLAQANQVPQNVLSLLR
chain 2: MGHHHHHHASEYLNKIQNSLSTEWSPSSVTGSWQTWNARWDQWSNDWNAWRSDWQAWRDDWARWRALWMGGRLLLRLEELERRLEELERRLEELERFVAAWTLRVRALERRLEELERRIEEIARGSGDPNANPNVDPNANPNVNANPNANPNANP
As to B3, in experiment [2], the “EC50 of TLR5 agonist activity (SEAP reporter, TLR5/SEAPorter HEK 293 cells)” value was 0.0901 ng/mL and the “TLR5 activation relative to native flagellin” value is approximately 3 fold.
